The target in this test is Synaptotagmin 2 K60A expressed in PC12 or HEK 293 cells (UniProt P29101). Briefly: immunostaining of cells or tissue.

This is an account of results in paper doi:10.1101/2021.10.18.464377.

Where “and” joins values, the source holds several entries; their conditions need not be identical. Equal entries are not always repeated.

Chain of UniProt P29101 (P29101 whole entry K60A): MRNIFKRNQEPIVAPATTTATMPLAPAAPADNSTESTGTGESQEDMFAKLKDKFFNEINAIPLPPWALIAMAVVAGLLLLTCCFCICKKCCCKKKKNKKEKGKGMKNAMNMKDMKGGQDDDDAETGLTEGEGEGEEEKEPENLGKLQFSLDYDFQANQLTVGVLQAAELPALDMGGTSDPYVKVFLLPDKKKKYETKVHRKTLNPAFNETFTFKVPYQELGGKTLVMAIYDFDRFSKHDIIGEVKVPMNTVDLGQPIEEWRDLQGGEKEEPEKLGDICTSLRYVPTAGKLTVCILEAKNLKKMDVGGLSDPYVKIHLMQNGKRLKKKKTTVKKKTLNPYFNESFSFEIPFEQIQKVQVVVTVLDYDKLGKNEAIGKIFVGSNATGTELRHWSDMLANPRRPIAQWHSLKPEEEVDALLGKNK

Consider “Botulinum neurotoxin serotype B (B1 Okra strain) with non-toxic accessory proteins (complex)”, for which the decrease of BoNT/B binding against SYT2-WT was 64% and 69%.
